Source: patent US20060264615A1 (MAXYGEN, published 2006)

T1: modified p35 polypeptide R2-571 with C-terminal EHtag
T1 construct: Recombinant (shuffled) p35 variant with the EHtag fused to its C-terminus; also called R2-571-EHtag
T1 chain: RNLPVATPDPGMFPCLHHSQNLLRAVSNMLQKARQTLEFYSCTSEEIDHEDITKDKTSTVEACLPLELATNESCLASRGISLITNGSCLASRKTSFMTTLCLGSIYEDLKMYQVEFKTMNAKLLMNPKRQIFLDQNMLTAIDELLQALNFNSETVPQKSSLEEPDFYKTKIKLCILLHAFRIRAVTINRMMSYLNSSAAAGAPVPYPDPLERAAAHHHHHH

T2: wild-type human p40 polypeptide (human, UniProt P29460 23-328)
T2 construct: Secreted from COS-7 or 293 cells co-transfected with a p35 nucleic acid; also called wt-p40
T2 sequence: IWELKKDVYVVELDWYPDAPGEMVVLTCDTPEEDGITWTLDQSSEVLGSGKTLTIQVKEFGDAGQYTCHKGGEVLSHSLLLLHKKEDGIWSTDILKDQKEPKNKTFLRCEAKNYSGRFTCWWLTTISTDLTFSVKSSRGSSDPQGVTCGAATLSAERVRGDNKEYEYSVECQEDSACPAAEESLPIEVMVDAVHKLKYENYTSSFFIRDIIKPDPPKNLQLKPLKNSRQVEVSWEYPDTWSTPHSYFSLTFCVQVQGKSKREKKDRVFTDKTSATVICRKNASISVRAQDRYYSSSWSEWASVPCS

B1: modified p40 polypeptide B2-52 (ligand)
chain: IWELEKNVYVVELDWYPDAPGEMVVLACDTPEEDGITWTSDQSSGVLGTGKTLTIHVKEFGDAGQYTCRKGGAVLSQSLLLLHKKEDGIWSTDILKDQKEPKAKSFLKCEAKDYSGHFTCWWLTTISTDLKFSVKSSRGSSDPQGVTCGAVTLSAERVSMDHREYNKYTVECQEGSACPSAEESLPIEVVVDAIHKLKYENYTSSFFIRDIIKPDPPKNLQLRPLKNSRQVEVNWEYPDTWSTPHSYFSLTFCVQVQGKNKREKKLFMDQTSAKVTCHKDAKIRVQARDRYYSSSWSEWASVPCS
B2: modified p40 polypeptide C2-22 (ligand)
chain: IWELKKDVYVVELDWYPNAPGETVVLTCDTPEEDGITWTSDQSSEVLGTGKTLTIHVKEFGDAGQYTCRKGGEALSRSLLLLHKKEDGIWSTDILKDQKEPKNKSFLKCEAKNYSGRFTCWWLTTISTDLKFSVKSSRGSTDPRGVTCGTATLSEDLGEYKKYRVECQEGSACPAAEESLPIEVVLEAVHKLKYENYTSSFFIRDIIKPDPPKNLQLKPLKNSRHVEVSWGYPDTWSTPHSYFSLTFCIQVQGKSKREKKDRIFTDKTSATVICRKNAKIRVQARDRYYSSFWSEWASVSCS
notes: Recombinant (shuffled) p40 variant; the mature region is stated as residues 23-324; also called p40C2-22
B3: modified p40 polypeptide B8-96 (ligand)
chain: IWELEKNVYVVELDWYPDAPGEMVVLACDTPEEDGITWTSDQSSEVLGTGKTLTIHVKEFGDAGQYTCRKGGAVLSQSLLLLHKKEDGIWSTDILKDQKEPKNKSFLKCEAKNYSGRFTCWWLTTISTDLKFSVKSSRGSSDPRGVTCGAALLSAEKVSLEHREYKKYRVECQEGSACPAAEESLPIEVVLEAVHKLKYENYTSSFFIRDIIKPDPPKNLQLRPLKNSRQVEVNWEYPDTWSTPHSYFSLTFCVQVQGKNKREKKLFMDQTSAKVTCHKDAKIRVQARDRYYSSSWSEWASVPCS
B4: modified p40 polypeptide A3-48 (ligand)
chain: IWELEKNVYVVELDWYPDAPGEMVVLACDTPEEDGITWTSDQSSEVLGTGKTLTIHVKEFGDAGQYTCHKGGKVLSRSLLLLHKKEDGIWSTDILKDQKEPKNKSFLKCEAKNYSGRFTCWWLTTISTDLTFSVKSSRGSTDPHGVTCGTATLSEDLGEYKKYRVECQEGSACPAAEESLPIEVVLEAVHKLKYENYTSSFFIRDIIKPDPPKNLQLRPLKNSRQVEVNWEYPDTWSTPHSYFSLTFCVQVQGRNKREKKLFMDQTSAKVTCHKDAKIRVQARDRYYSSSWSDWASVSCG
B5: modified p40 polypeptide B1-81 (ligand)
chain: IWELEKNVYVVELDWYPDAPGETVVLACDTPEEDGITWTSDQSSEVLGTGKTLTIHVKEFGDAGQYTCRKGGAVLSQSLLLLHKKEDGIWSTDILKDQKKPKNKIFLKCEAKNYSGRFTCWWLTAISTDLKFTVKSSRGSSDPQGVTCGAVTLSAERVSMDHREYNKYTVECQEGSACPSAEESLPIEVVVDAIHKLKYENYTSRFFIRDIIKPDPPKNLQLRPLKNSRHVEISWEYPDTWSTPHSYFSLTFCVQVQGKNKREKKLFMDQTSAKVTCHKDAKIRVQARDRYHSSSWSEWASVPCS
B6: modified p40 polypeptide A16-94 (ligand)
chain: IWELKKDVYVVELDWYPDAPGEMVVLACDTPEEDGITWTSDQSSEVLGTGKTLTIHVKEFGDAGQYTCHKGGTVLSQSLLLLHKKEDGIWSTDILKDQKEPKNKSFLKCEAKNYSGRFTCWWLTAISTDLKFTVKSSRGSTDPRGVTCGTATLSEDLGEYKKYRVECQEGSACPAAEESLPIEVVLEAVHKLKYENYTSSFFIRDIIKPDPPKNLQLRPLKNSRHVEVSWEYPDTWSAPHSYFSLTFGVQVQGRNKREDRLFMDQTSAKVVCHKDAKIRVQARDRYYSSSWSEWASVSLQSV
B7: wild-type human p35 polypeptide (ligand)
chain: RNLPVATPDPGMFPCLHHSQNLLRAVSNMLQKARQTLEFYPCTSEEIDHEDITKDKTSTVEACLPLELTKNESCLNSRETSFITNGSCLASRKTSFMMALCLSSIYEDLKMYQVEFKTMNAKLLMDPKRQIFLDQNMLAVIDELMQALNFNSETVPQKSSLEEPDFYKTKIKLCILLHAFRIRAVTIDRVTSYLNAS
notes: Secreted from COS-7 or 293 cells co-transfected with a p40 nucleic acid; also called wt-p35
B8: wild-type human p35 polypeptide with C-terminal EHtag (ligand)
chain: RNLPVATPDPGMFPCLHHSQNLLRAVSNMLQKARQTLEFYPCTSEEIDHEDITKDKTSTVEACLPLELTKNESCLNSRETSFITNGSCLASRKTSFMMALCLSSIYEDLKMYQVEFKTMNAKLLMDPKRQIFLDQNMLAVIDELMQALNFNSETVPQKSSLEEPDFYKTKIKLCILLHAFRIRAVTIDRVTSYLNASAAAGAPVPYPDPLERAAAHHHHHH
notes: wt-p35 with the EHtag fused to its C-terminus; also called wt-p35-EHtag

Legend:
[1] = biological target: B7; test: immunoblot with anti-p35 mAB of COS-7 culture medium; ~70 kDa p40/p35 heterodimer band (FIG. 7)
[2] = biological target: T1, modified p35 polypeptide R2-571 with …; test: Western blot with anti-E tag mAB of heterodimer purified on an anti-E affinity column through the p35 EHtag (FIG. 14)
Description: (§1) Co-expressing in mammalian cells a modified p40 nucleic acid of the invention plus a modified p35 nucleic acid of the invention produces a substantially more homogenous heterodimeric protein than the heterodimeric protein produced by co-expressing a wt-p40 nucleic acid and a wt-p35 nucleic acid. […] Both the modified p35 nucleic acid and the wt-p35 nucleic acid also comprised a C-terminal EHtag coding sequence.

[3] = biological target: T2, wild-type human p40 polypeptide; test: immunoblot with anti-p35 mAB of COS-7 culture medium; ~70 kDa p40/p35 heterodimer band, control (FIG. 7)
[4] = biological target: T2, wild-type human p40 polypeptide; test: Western blot with anti-E tag mAB of heterodimer purified on an anti-E affinity column through the p35 EHtag (FIG. 14)
Description: as §1

Binder	binding result [1]	also measured
B1	binds	
B2	binds	binding result [2]: binds
B3	binds	
B4	binds	
B5	binds	
B6	binds	
B7		binding result [3]: binds
B8		binding result [4]: binds
